Test results: the supplement of paper PMC9170038

Test system: MS2 coat protein
Assay: apparent KD of MS2 coat protein; designed switch direction (-1 OFF switch, 1 ON switch): -1; higher = weaker reporter binding
Summary of the method: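 The reported apparent KD is a per-design median over clusters, from curve fits of normalised cluster fluorescence. Protein titrations used SNAP-549-labelled MS2 coat protein, doubled from 0.7 or 1.5 nM to 3 µM, in Tris-HCl pH 7.5 buffer with KCl, MgCl2, BSA, DTT, tRNA and Tween-20, with no input, 200 uM small-molecule ligand, or an oligonucleotide input. The RNA switches were transcribed on Illumina chips by stalled E. coli RNA polymerase.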

[1] = Eterna round: R95, input ligand: microRNA oligo, concentration not stated
[2] = input ligand: microRNA oligo, concentration not stated
[3] = Eterna round: R95, input ligand: FMN 200 uM
[4] = Eterna round: R95, input ligand: none

| Sequence | apparent KD of MS2 coat protein (input ligand: FMN 200 uM) | apparent KD of MS2 coat protein (input ligand: none) | apparent KD of MS2 coat protein [1] | apparent KD of MS2 coat protein [2] | apparent KD of MS2 coat protein [3] | apparent KD of MS2 coat protein [4] |
| --- | --- | --- | --- | --- | --- | --- |
| CCCGUGUGAGGAUAUCCCUCCACAGUACGAAUCGACCCGUGGGAGAAGGCACAUGAGGAUCACCCAUGUGAACG [Eternabot (Original) Solution 30] (Eterna round: R97, puzzle: Exclusion 4) | 42.5 nM | 32.8 nM |  |  |  |  |
| GAGGUGUUAGGAUAUCGGAGAUGGAGAAGAACGGGAAGAGGCGAGAAGGAACAUGAGGAUCACCCAUGUAGGUG [JR_Exclu4_Sub029] (puzzle: Exclusion 4) |  |  | 357 nM |  |  |  |
| ACUUAUAGAGGAUAUACAGAAUAUUACAUGAGGAUCACCCAUGUUCUUCAAUGUAUAUAUGUAGAAGGCUAAGGAU [Mat - Exclusion 5 - JL Mod - D6] (Eterna round: R97, puzzle: Exclusion 5) | 299 nM | 89.9 nM |  |  |  |  |
| UUACUACAUGUAGGAUAUGCGUGGCGAAGCUAUGCAGAAGGACAUGAGGAUCACCCAUGUUUUAGCGUCUGCGUACAGAUGCGU [JL ENG1 1.47] (Eterna round: R96, puzzle: Exclusion NG 1) |  |  |  | 14.8 nM |  |  |
| UGGGUACAUGAGGAUCACCCAUGUGAGGAUAUGCCGGAAGAAUCGCAGAAAUGAGCCAGUAGAAGGCACAAGGG [Eternabot (L2) Solution 100] (Eterna round: R97, puzzle: Exclusion 1) | 1300 nM | 1190 nM |  |  |  |  |
| UUUCGGCAUGUAGGAUAUGGGUCCGAUUAGGAUUUAGAAGGACAUGAGGAUCACCCAUGUGCAUUUAAUUGGUCAUUACCGUUU [EXclNG1-LROPPY09] (Eterna round: R96, puzzle: Exclusion NG 1) | 86.7 nM | 66 nM |  | 47.8 nM |  |  |
| AUUAAUUGUCAGAUGGGUGACAUGAGGAUCACCCAUGUCACAAGCUUUUUGUUCGUCUUAUAAUUAACCCAUCUGAC [Stov1/11-B2] (Eterna round: R97, puzzle: Sensor, turn-off variant 1) | 13.8 nM | 14.4 nM |  |  |  |  |
| CUCGUGCAGCUUUGCUGUACGAGUACAUGAGGAUCACCCAUGUAGGAUAUGGUACGCUUUGCGUGCUAGAAGGAUAUGUGUAGG [JL EXNG3 1.38] (Eterna round: R96, puzzle: Exclusion NG 3) | 44.1 nM | 31.3 nM |  | 18.4 nM |  |  |
| GUAGAUCGAGUUAGGAUAUGAUUACUAUCCGAAAAUCAGAAGGAACUUGAGGAUCACCCAAGUAUAGAUGAUAU [JR_BMEx4_Sub053] (Eterna round: R97, puzzle: Brourd's mod of Exclusion 4) | 21.7 nM | 16.9 nM |  |  |  |  |
| GAUACACAUGAGGAUCACCCAUGUGAGGAUAUGCGUACGUUGUCCGUAGGCGACGUGCGCAGAAGGCGCGAGGU [Mat - Mod of JL D92] (puzzle: Exclusion 1) |  |  | 31.8 nM |  |  |  |
| GAAGGACGAGGAUAUGUAUGGGACAGCCGAGGAAAAUCUCAACAUGAGGAUCACCCAUGUAGAAGGCGUGCCCG [Eternabot (Original) Solution 44] (Eterna round: R97, puzzle: Exclusion 2) | 16.4 nM | 14.1 nM |  |  |  |  |
| AGUUGGCGAGGAUAUACAUGAGGAUCACCCAUGUAUGAGAUAAAAGUGAGGUAAAUAUGUAGAAGGCGCUGACA [JR_Ex3_Sub078] (Eterna round: R97, puzzle: Exclusion 3) | 897 nM | 107 nM |  |  |  |  |
| GGGUGACAGUUAGGAUAUCUUAGCACGCCGUAGAGAGAAGGGACAUGAGGAUCACCCAUGUUGUAGUGCCUCAAACACUGCUAG [Beintitian] (Eterna round: R96, puzzle: Exclusion NG 1) | 45.7 nM | 48.3 nM |  | 31.9 nM |  |  |
| GAAAACGUAGGAUAUUAAUACUCAGACAUGAGGAUCACCCAUGUUUGGUGGGUCGGAGAAUGAGAAGGGCGAUGAA [EX5 #14] (Eterna round: R97, puzzle: Exclusion 5) | 82.3 nM | 89.7 nM |  |  |  |  |
| UUUGCAAGCUUAUGAUCCCACAUGAGGAUCACCCAUGUUGCUGCCGGUGACGGUAGCAUAACAUAUGCUCGUCUUAU [JL TOV1 3.63] (Eterna round: R97, puzzle: Sensor, turn-off variant 1) | 791 nM | 1170 nM |  |  |  |  |
| GUUUGACAUGAGGAUCACCCAUGUAAGGAUAUACGAGUAGAUGAUAGAUAGAUAGUAUGUAGAAGGUACGUGUU [EX1 #61] (Eterna round: R97, puzzle: Exclusion 1) | 74.3 nM | 92.8 nM |  |  |  |  |
| CAGGGUAGAGGAUAUACGUAGGUACAGAUCUGUGUGAUCCUACAUGAGGAUCACCCAUGUAGAAGGCUAGCCUG [LRO-Excl2-07] (puzzle: Exclusion 2) |  |  | 305 nM |  |  |  |

| Sequence | apparent KD of MS2 coat protein (input ligand: FMN 200 uM) | apparent KD of MS2 coat protein (input ligand: none) | apparent KD of MS2 coat protein [1] | apparent KD of MS2 coat protein [2] | apparent KD of MS2 coat protein [3] | apparent KD of MS2 coat protein [4] |
| --- | --- | --- | --- | --- | --- | --- |
| AACAUUCCAGAAAGGAAUGACAUGAGGAUCACCCAUGUAGGGAUCUAUGCUAAGUUGCUCGUCGCCGCUCCACAAAG [Eternabot (Original) Solution 5] (Eterna round: R97, puzzle: Sensor, turn-off variant 1) | 431 nM | 362 nM |  |  |  |  |
| GUUUGCGCAGGAUAUACAUGAGGAUCACCCAUGUGAGAGAAAUAAGUGAGGAAGAAAAGUAGAAGGGCGUGACG [Mat - Exclusion 3 - Mod of Salish D71] (puzzle: Exclusion 3) |  |  | 34 nM |  | 171 nM | 42.8 nM |
| AUAAACGCAGGAUAUACAUGAGGAUCACCCAUGUAAAUUUUAAAAUAAAUAAAUAGAUGUAGAAGGGCGAAAUA [Lollin - Gamma 1] (puzzle: Exclusion 3) |  |  | 28.2 nM |  | 37 nM | 33.5 nM |
| GUAGAGUCAGGAUAUACGAGAUCGAAAGAUCGGCGGUCCAUACAUGAGGAUCACCCAUGUAGAAGGGACUCUAC [Omei mod 5 to Eli's favorate candidate (ch.parushev)] (Eterna round: R97, puzzle: Exclusion 2) | 115 nM | 18.3 nM |  |  |  |  |
| AGUGUGUGGCAGGAUAUGCGAUUUGUAAGUGUUGCAGAAGGGUCUACAUGAGGAUCACCCAUGUGUGCGGUUGA [Ex6 #13] (Eterna round: R97, puzzle: Exclusion 6) | 658 nM | 516 nM |  |  |  |  |
| GCAGCUAGUUCAGGAUAUCAGCACGAUUAGUGCUGAGAAGGGAACAUGAGGAUCACCCAUGUGAUCAAUGCUGCAAUUUUAAUU [ENG1/12-A1] (Eterna round: R96, puzzle: Exclusion NG 1) | 481 nM | 597 nM |  | 235 nM |  |  |
| UGCUGACGAGGAUAUACAUGAGGAUCACCCAUGUUGGUCAAGCGACGAUAGUCGCAAUGUAGAAGGUGUCAGCA [E3/8-B1] (Eterna round: R97, puzzle: Exclusion 3) | 694 nM | 114 nM |  |  |  |  |
| CCAUGGGAGCGAGGAUAUAGACCAUGGGAAGAUCUAGAAGGCGCUGACAUGAGGAUCACCCAUGUGUUCAUGAGGAGGUGGACA (Eterna round: R96, puzzle: Exclusion NG 1) | 73.7 nM | 47.1 nM |  | 74.4 nM |  |  |
| GAAUGAGAGCAGGAUAUCUUAUAAGUGUAUGAAAGAGAAGGGCUCACAUGAGGAUCACCCAUGUGGUCCUAGAU [jl-ex6-4.86 jandersonlee mod] (Eterna round: R97, puzzle: Exclusion 6) | 329 nM | 41.7 nM |  |  |  |  |
| ACAAGCUUUUUGUUCGUCUUAUACACUCCUAAUAAGACAACAUGAGGAUCACCCAUGUAAGAAAUAAGAACUCAUGU [Sesor Array 4 - Jieux - Sensor v3, turn-off variant 2] (puzzle: Sensor v3, turn-off variant 2) |  |  | 595 nM |  | 292 nM | 381 nM |
| UCUCGCGUCGAGGAUAUAUCGUGUAAGUGCGCGAUAGAAGGCGACACAUGAGGAUCACCCAUGUAGGGCCGAAC [Eternabot (Original) Solution 14] (Eterna round: R97, puzzle: Exclusion 6) | 149 nM | 23.2 nM |  |  |  |  |
| GCACAGUGAGGAUAUACAUGAGGAUCACCCAUGUCCGCCGAUUAAGAGGUAUCAACGUGUAGAAGGUACCAGCG [Eternabot (Original) Solution 25] (Eterna round: R97, puzzle: Exclusion 3) | 17.2 nM | 18.5 nM |  |  |  |  |
| UUUAUGUCAGGAUAUACAUGAGGAUCACCCAUGUAUAUCUAAAAAUAUACAUGGGUAUGUAGAAGGGACCUCCU [Omei Ex3 Pseudoloop 2] (Eterna round: R97, puzzle: Exclusion 3) | 52.6 nM | 146 nM |  |  |  |  |
| GUUGUUUAUGUAGGAUAUGCAAGGCGAACCUAAGCAGAAGGACAUGAGGAUCACCCAUGUAUUGCGGUCUGCGUUCAGAUCGCU [salish99_ExNG1_r4_014] (Eterna round: R96, puzzle: Exclusion NG 1) | 56.8 nM | 20.1 nM |  | 16.3 nM |  |  |
| GGAAAGGUAGGAUAUACGAAGAAAAAGGGUAGAAGAAGAACACAUGAGGAUCACCCAUGUAGAAGGACCAAAGC [Mat - Exclusion 2 - Mod of my Tesla design - D15] (puzzle: Exclusion 2) |  |  | 20.9 nM |  | 56.5 nM | 23.9 nM |
| GAUUAUGCAAGCUUUUGGGACAUGAGGAUCACCCAUGUUCGUCUUAUUGAUCUAGGUACGCUGACGUACCUAGAUCU [JL-sv1-2.32 Brourd mod] (Eterna round: R96, puzzle: Sensor v3, turn-off variant 1) | 14.8 nM | 17.2 nM |  | 52.1 nM |  |  |
| CACGUCUGAGGAUAUCGUUUUUUGUACAUGAGGAUCACCCAUGUCCAAUUUUGUAUAUUACGAGAAGGCAGUGGAA [JR_E5_Sub090] (puzzle: Exclusion 5) |  |  | 12.3 nM |  |  |  |
